Reference: article doi:10.1101/2025.05.27.656348

Molecular target: RELMβ bait: RELMβ fused to rat CD4d3+4, BirA recognition site and 6X-histidine tag (mouse) (UniProt Q99P86)
Assay: SPR

Sequence of UniProt Q99P86 (Q99P86 24-105): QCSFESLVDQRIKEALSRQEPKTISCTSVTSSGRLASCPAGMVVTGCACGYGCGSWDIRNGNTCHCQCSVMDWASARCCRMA

Kd: < 0.1 nM
Substance: HpBoRB, C-terminal 6X-His tagged, from the pSecTAG2A expression vector (natural protein)
